According to patent US6379938B1, “Epoxide hydrolase” (Puratos N.V., priority 1997, dated 2002):

How the values were obtained:
[1] = Determination of the cis-epoxysuccinate-hydrolase activity (L-tartaric acid formed, HPLC); format: biochemical; conditions: cells of Escherichia coli DH10B containing plasmid pREHXS, overnight culture; 37° C., pH 8.0; activity = amount of L(+)-tartaric acid formed in a day by 1 gram of dried cells
Experimental: The enzymatic reaction is performed at 37° C. in a final volume of 9.3 ml that contains the following components: 0.7 ml of 0.1N Tris.HCl buffer pH 8.0, 2.6 ml of a 1.14% Triton X-100 solution, 5.0 ml of a 30% sodium cis-epoxysuccinate solution and 1.0 ml of the cell suspension. The reaction is stopped by diluting the mixture between 100 and 500 times with H2O acidified to pH 2.2 with H3PO4.
The amount of L-tartaric acid formed during the reaction is determined by HPLC at room temperature on a Vydac C18 column (cat no. 201HS3410) with a flow rate between 400 and 600 μl/min and a sample volume of 20 μl. The solvent is the same as the one used to dilute the samples. The detection of cis-epoxysuccinate and tartaric acid occurs at 210 nm.
Activity is expressed as the amount of L(+)-tartaric acid formed in a day by 1 gram of dried cells.
The Escherichia coli strain DH10B containing the plasmid pREHXS is cultivated overnight in 2×LB medium (Yeast Extract 1%, Bacto-tryptone 2%, NaCl 2%) supplemented with 100 μg/ml of ampicillin. The same strain with the pBluescriptSK(+) plasmid without insert is used as a control.
The activity of the cis-epoxysuccinate hydrolase is determined in the cells collected from the two cultures using the protocol described in example 1. No activity could be detected in the control. About 150 units is present in the strain expressing the cis-epoxysuccinate gene.

[2] = pH activity profile of the epoxide hydrolase (FIG. 5); format: biochemical; conditions: pH between 7.0 and 10 (FIG. 5)
Excerpt: The isolated and purified epoxide hydrolase amino acid sequence according to the invention is also characterised by an advantageous pH activity profile having a high enzymatic activity (more than 80% of the optimum enzyme activity) between 7.0 and 10, preferably between 7.5 and 9.5 (see FIG. 5).
FIG. 5 represents the relative enzymatic activity of the enzyme according to the invention.
This enzymatic activity is advantageously maintained constant at a pH higher than 7, preferably at a pH comprised between 7.0 and 10, more preferably at a pH comprised between 7.5 and 9.5.

activity of the cis-epoxysuccinate hydrolase [1]: About 150 units
B1: cis-epoxysuccinate hydrolase: 253 amino acid, 28 kDa epoxide hydrolase of Rhodococcus rhodochrous LMGP-18079, expressed in E. coli from plasmid pREHXS (protein)
chain: MQLNNANDNTQFRALLFDVQGTLTDFRSTLIEHGLSILGDRVDRELWEELVDQWRGCYRDELDSLVKQEKWRSVRAVYRDSLINLLAKFSDSFCATSAEVELLTDGWERLRSWPDVPSGLEQLRSKYLVAALTNADFSAIVNVGRSAKLQWDAVLSAQLFGAYKPHRSTYEGAATLLGIAPSEILMVASHAYDLEAAREVGAGTAYVRRPLEYGPTGRTEDVPDGRFDFLVDSISELADQLGCPRLGGTAGID
enzymatic activity relative to the optimum enzyme activity [2]: more than 80%
